# Data published in US20180244776A1.
# Changes are numbered by the printed parent chain.
# T1: human Sema3A (human) (UniProt Q14563)
# T1 sequence (looked up): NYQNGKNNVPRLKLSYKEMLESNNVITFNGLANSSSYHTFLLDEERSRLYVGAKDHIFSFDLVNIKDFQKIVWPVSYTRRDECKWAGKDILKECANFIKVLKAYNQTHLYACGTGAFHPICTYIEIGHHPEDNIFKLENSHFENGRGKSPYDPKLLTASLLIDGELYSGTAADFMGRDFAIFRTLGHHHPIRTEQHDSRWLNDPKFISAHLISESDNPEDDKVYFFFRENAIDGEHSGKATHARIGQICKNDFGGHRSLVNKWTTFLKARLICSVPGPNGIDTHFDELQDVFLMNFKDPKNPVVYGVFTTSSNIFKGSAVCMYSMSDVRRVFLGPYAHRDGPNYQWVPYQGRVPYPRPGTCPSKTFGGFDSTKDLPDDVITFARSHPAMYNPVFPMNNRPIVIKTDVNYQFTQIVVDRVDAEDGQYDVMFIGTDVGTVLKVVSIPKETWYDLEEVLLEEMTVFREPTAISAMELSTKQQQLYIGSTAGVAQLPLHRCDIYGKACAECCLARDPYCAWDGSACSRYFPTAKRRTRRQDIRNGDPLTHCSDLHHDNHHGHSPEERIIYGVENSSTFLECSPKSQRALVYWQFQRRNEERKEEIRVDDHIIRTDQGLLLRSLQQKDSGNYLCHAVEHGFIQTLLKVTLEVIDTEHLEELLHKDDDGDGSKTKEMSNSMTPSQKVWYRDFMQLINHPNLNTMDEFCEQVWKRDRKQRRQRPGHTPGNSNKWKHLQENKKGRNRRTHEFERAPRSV
# B1: F11 anti-Sema3A scFv antibody fragment (scFv, part only; not given: linker and His/HA tags, V domains shown, not shown: another chain or arm of the molecule; large carriers; small tags and cut ends)
# VH: EVQLLESGGGLVQTGGSLRLSCAASGFTFSDYAMSWVRQAPGKGLEWVSWIYYDSGSKYYADSVKGRFTISRDNSKNTLYLQMNSLRAEDTAVYYCAKLNGDFDYWGQGTLVTVSS
# VL: QSVLTQPPSASGTPGQRVTISCSGSSSNIGNNDVSWYQQLPGTAPKLLIYADSHRPSGVPDRFSGSKSGTSASLAISGLRSEDEADYYCGAWDSSLSGYVFGGGTKLTVL
# B2: A08 anti-Sema3A scFv antibody fragment (scFv, part only; not given: linker and His/HA tags, V domains shown, not shown: another chain or arm of the molecule; large carriers; small tags and cut ends)
# VH: B1 VH with T14P, W50G, S55D, G56S, K58Q, L99N, N100L, D102R
# VL: B1 VL with S23T, N31S, D33A, S35T, A51D, S53N, S94D, G98A
# B3: C10 anti-Sema3A scFv antibody fragment (scFv, part only; not given: linker and His/HA tags, V domains shown, not shown: another chain or arm of the molecule; large carriers; small tags and cut ends)
# VH: B1 VH with T14P, W50G, S55D, G56S, K58Q, K65E, K98R, L99Y, N100L, D102L
# VL: B1 VL with D33S, S35N, A51S, H54Q, A91S, S94Y, G98A
# Target: T1, human Sema3A (human)
# Experiment: cell-based or functional assay
binder,measurement,value
B1,"cell migration of U87-MG cells (transwell, 50 ug/ml scFv)",74 % of control
same,cell migration of patient-derived 83 cells (transwell),28%
same,cell migration of patient-derived 131 cells (transwell),7%
B2,"cell migration of U87-MG cells (transwell, 50 ug/ml scFv)",78 % of control
same,cell migration of patient-derived 83 cells (transwell),21%
same,cell migration of patient-derived 131 cells (transwell),11%
B3,"cell migration of U87-MG cells (transwell, 50 ug/ml scFv)",70 % of control
same,cell migration of patient-derived 83 cells (transwell),44%
same,cell migration of patient-derived 131 cells (transwell),19%
